Experimental data: the supplement of paper PMC10567573

B1: PDS5B (parent)
chain: ITYPPGVKEISDKISKEEMVRRLK
B2: ACSBG2 (parent)
chain: TPMTIPEFFRESVNRFGTYPALAS
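Further: lentivirally expressed fusions sorted by FACS into six bins by GFP to DsRed ratio, PSI derived from sequencing read proportions per bin multiplied by bin number.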

Variants of: B1
Test: protein stability index of a GFP-peptide fusion (GPS, HEK-293T) (PSI 1-6); higher = more stable
Conditions: c terminus: a fixed tail appended
With I14E the protein stability index was 4.61. Variant K24D has a protein stability index of 4.78. With K24S the protein stability index was 3.23. Variant E17C has a protein stability index of 2.91. Work on E17H yielded a protein stability index of 4.17. For E17G, the protein stability index was 3.52. With V20I the protein stability index was 3.42. In the case of V20R, the protein stability index is reported as 4.61. E9D showed a protein stability index of 3.98. For Y3A, the protein stability index was 4.48. With M19E the protein stability index was 4.79. Variant T2K has a protein stability index of 3.55. With T2W the protein stability index was 3.45. In the case of T2V, the protein stability index is reported as 2.4. P4M showed a protein stability index of 3. Work on K8Q yielded a protein stability index of 4.29. K8F showed a protein stability index of 3.15. For S15I, the protein stability index was 2.73. I10S gave a protein stability index of 4.53. For I10R, the protein stability index was 3.74. Variant K13A has a protein stability index of 4.08. With K13S the protein stability index was 4.35. For K13M, the protein stability index was 3.76. Work on R22S yielded a protein stability index of 4.24. In the case of R22C, the protein stability index is reported as 2.9. L23W gave a protein stability index of 3.1. With P5G the protein stability index was 3.67. Variant P5I has a protein stability index of 4.29. I1C showed a protein stability index of 4.63. Variant I1P has a protein stability index of 4.78. For S11G, the protein stability index was 3.92. S11T showed a protein stability index of 4.08. R21S gave a protein stability index of 4.45.

Variants of: B2
Test: as above
Conditions: c terminus: a fixed tail appended
T18G gave a protein stability index of 2.17. For T18R, the protein stability index was 2.17. Work on T18I yielded a protein stability index of 2.02. T18M gave a protein stability index of 1.74. In the case of T18W, the protein stability index is reported as 1.49. With I5R the protein stability index was 2.97. For I5Y, the protein stability index was 2.05. I5C gave a protein stability index of 2.58. With I5F the protein stability index was 2.23. I5H showed a protein stability index of 2.39. I5V showed a protein stability index of 2.03. Variant N14H has a protein stability index of 2.05. With N14L the protein stability index was 1.62. N14A gave a protein stability index of 2.51. Work on N14W yielded a protein stability index of 1.74. With N14F the protein stability index was 1.66. With A23P the protein stability index was 2.2. A23C gave a protein stability index of 1.77. A23I gave a protein stability index of 2.37. Work on F9G yielded a protein stability index of 3.05. F9C gave a protein stability index of 2.17. Variant F9K has a protein stability index of 2.67. With F9A the protein stability index was 2.42. With F9M the protein stability index was 2.45. For L22V, the protein stability index was 2.02. L22W showed a protein stability index of 2.57. For L22I, the protein stability index was 2.34. Work on L22F yielded a protein stability index of 2.63. In the case of S12T, the protein stability index is reported as 2.02. Work on S12W yielded a protein stability index of 1.39. For S12Y, the protein stability index was 1.86. S12C gave a protein stability index of 1.53. Variant S12N has a protein stability index of 2.25. With S12V the protein stability index was 2.19. In the case of S12Q, the protein stability index is reported as 2.65. In the case of S12I, the protein stability index is reported as 1.76. With S12P the protein stability index was 2.47. Y19T gave a protein stability index of 2.76. Variant Y19P has a protein stability index of 2.87. Work on Y19F yielded a protein stability index of 2.52. In the case of Y19M, the protein stability index is reported as 2.77. R10E showed a protein stability index of 2.43. R10K showed a protein stability index of 2.55. Variant R10D has a protein stability index of 2.75. R10L showed a protein stability index of 1.45. R10H gave a protein stability index of 2.15. For R10G, the protein stability index was 2.37. R10N gave a protein stability index of 3.3. Variant E11L has a protein stability index of 1.48. For E11K, the protein stability index was 2.09. Variant E11Q has a protein stability index of 1.5. In the case of G17V, the protein stability index is reported as 2.1. In the case of G17Q, the protein stability index is reported as 1.86. For G17A, the protein stability index was 1.78. With G17K the protein stability index was 2.27. G17P gave a protein stability index of 2.22. G17S showed a protein stability index of 2.62. For G17I, the protein stability index was 1.97. G17Y gave a protein stability index of 2.04. S24G gave a protein stability index of 2.18. In the case of S24L, the protein stability index is reported as 2.04. Work on S24H yielded a protein stability index of 1.93. For S24Q, the protein stability index was 2.08. For S24M, the protein stability index was 2.67. With V13C the protein stability index was 3.09. With V13A the protein stability index was 2.42. Work on V13R yielded a protein stability index of 2.37. V13D gave a protein stability index of 2.79. With V13F the protein stability index was 1.97. In the case of R15V, the protein stability index is reported as 2.41. Variant R15T has a protein stability index of 2.57. With R15E the protein stability index was 2.62. For R15A, the protein stability index was 2.41. Work on R15S yielded a protein stability index of 2.64. Variant P6S has a protein stability index of 1.94. Variant P6A has a protein stability index of 1.8. Work on P6L yielded a protein stability index of 3.27. In the case of P6W, the protein stability index is reported as 2.67. In the case of P6Q, the protein stability index is reported as 1.93. Variant P6H has a protein stability index of 2.38. Work on P6M yielded a protein stability index of 3.03. E7N gave a protein stability index of 2.63. With E7G the protein stability index was 2.14. In the case of E7V, the protein stability index is reported as 1.9. Variant E7C has a protein stability index of 2.19. For E7D, the protein stability index was 2.13. E7T showed a protein stability index of 2.19. Work on E7P yielded a protein stability index of 2.24. Work on P2T yielded a protein stability index of 2.35. With P2G the protein stability index was 2.12. Variant P2Q has a protein stability index of 2.4. Work on P2E yielded a protein stability index of 2.89. P2Y showed a protein stability index of 2.88. Variant P2W has a protein stability index of 1.4. Variant P2C has a protein stability index of 1.72. For P2V, the protein stability index was 1.98. With P2M the protein stability index was 2.55. With T4P the protein stability index was 2.73. Variant T4N has a protein stability index of 2.4. For T4M, the protein stability index was 2.17. With T4Y the protein stability index was 2.62. Work on F16M yielded a protein stability index of 3.39. In the case of F16E, the protein stability index is reported as 3.37. With F16W the protein stability index was 2.16. F16R gave a protein stability index of 2.86. Work on F16L yielded a protein stability index of 2.11. M3C showed a protein stability index of 2.34. In the case of M3R, the protein stability index is reported as 2.61. With M3V the protein stability index was 2.11. M3Y showed a protein stability index of 2.49. In the case of F8T, the protein stability index is reported as 2.8. With F8Q the protein stability index was 2.65. In the case of F8L, the protein stability index is reported as 2.66. For F8H, the protein stability index was 2.45. F8C gave a protein stability index of 2.7. With F8M the protein stability index was 2.35. Variant F8W has a protein stability index of 2.09. Work on F8K yielded a protein stability index of 3.02. With F8V the protein stability index was 2.14. Work on T1K yielded a protein stability index of 3.04. Variant T1L has a protein stability index of 2.08. Work on T1M yielded a protein stability index of 1.85. For T1W, the protein stability index was 2. A21Q showed a protein stability index of 2.5. A21F gave a protein stability index of 1.65. With A21G the protein stability index was 2.47. A21T gave a protein stability index of 2.02. For A21M, the protein stability index was 2.26. For P20D, the protein stability index was 2.67. With P20I the protein stability index was 2.34. Variant P20G has a protein stability index of 2.3. Variant P20F has a protein stability index of 2.49. With P20Q the protein stability index was 1.71. For P20N, the protein stability index was 2.11.
